The series deals with Flag-tagged calcineurin-defective (ΔCalna) CRTC2 (UniProt Q3U182).
Chain of Flag-tagged calcineurin-defective (ΔCalna) CRTC2 (Q3U182 whole entry, looked up, stated change not applied): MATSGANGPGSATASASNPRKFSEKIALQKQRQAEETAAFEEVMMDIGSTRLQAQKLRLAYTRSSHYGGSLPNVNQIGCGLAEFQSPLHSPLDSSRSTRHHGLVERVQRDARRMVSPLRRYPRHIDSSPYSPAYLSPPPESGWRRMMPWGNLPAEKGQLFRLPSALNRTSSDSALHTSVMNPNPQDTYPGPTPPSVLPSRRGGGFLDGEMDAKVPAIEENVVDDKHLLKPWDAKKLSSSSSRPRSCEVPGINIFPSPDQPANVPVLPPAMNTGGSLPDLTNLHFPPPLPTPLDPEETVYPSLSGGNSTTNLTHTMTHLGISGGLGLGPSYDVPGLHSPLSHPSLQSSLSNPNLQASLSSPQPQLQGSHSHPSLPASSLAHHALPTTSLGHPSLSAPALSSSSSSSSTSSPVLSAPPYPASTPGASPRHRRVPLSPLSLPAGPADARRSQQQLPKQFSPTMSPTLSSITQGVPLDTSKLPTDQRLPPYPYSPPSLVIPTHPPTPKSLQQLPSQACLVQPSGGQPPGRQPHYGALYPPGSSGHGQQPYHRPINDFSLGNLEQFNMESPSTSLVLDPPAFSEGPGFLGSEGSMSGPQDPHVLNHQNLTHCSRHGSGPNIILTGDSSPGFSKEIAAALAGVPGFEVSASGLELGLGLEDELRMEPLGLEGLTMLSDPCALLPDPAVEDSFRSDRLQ

Consider HA-tagged calcineurin A (Calna), for which the “glucagon-dependent dephosphorylation of CRTC2, nuclear translocation, CRE-luc activation” value was “mutation of both motifs disrupted the glucagon-dependent dephosphorylation of CRTC2 (FIG. 33B) and prevented its nuclear translocation (FIG. 38C), thereby down-regulating CRE-luc activation”.

(Values after patent publication US20140314789.)
